Source: patent US20220251235A1 (published 2022)

How the values were obtained:
[1] = target: T1, MAGEA10 peptide on HLA-A*02:04 (human); experiment: cytokine release
T1 peptide: SLLKFLAKV

peptide on HLA-A*02:01 = target: T2, peptide on HLA-A*02:01 (human); experiment: cytokine release
T2 peptide: KLYGLDWAEL

[2] = target: T3, MAGEA10 peptide on HLA-A*02:01 (human); experiment: multimer staining
T3 peptide: SLLKFLAKV

binding result [1]: recognises
binding result (peptide on HLA-A*02:01): no recognition
binding result [2]: recognises
B1: MAGE-A10^SLL-TCR (TCR, V domains shown)
Valpha: DQQVKQNSPSLSVQEGRISILNCDYTNSMFDYFLWYKKYPAEGPTFLISISSIKDKNEDGRFTVFLNKSAKHLSLHIVPSQPGDSAVYFCAANSNSGYALNFGKGTSLLVTP
Vbeta: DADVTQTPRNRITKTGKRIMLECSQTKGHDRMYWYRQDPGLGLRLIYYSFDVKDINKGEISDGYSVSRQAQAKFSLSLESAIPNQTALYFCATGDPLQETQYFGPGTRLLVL
